In patent US20240101645A1 (HENRY M JACKSON FOUNDATION FOR THE ADVANCEMENT OF MILITARY …, published 2024):

T1: HCoV-229E spike antigens (bead panel) (HCoV-229E, UniProt P15423 16-1115)
T1 sequence: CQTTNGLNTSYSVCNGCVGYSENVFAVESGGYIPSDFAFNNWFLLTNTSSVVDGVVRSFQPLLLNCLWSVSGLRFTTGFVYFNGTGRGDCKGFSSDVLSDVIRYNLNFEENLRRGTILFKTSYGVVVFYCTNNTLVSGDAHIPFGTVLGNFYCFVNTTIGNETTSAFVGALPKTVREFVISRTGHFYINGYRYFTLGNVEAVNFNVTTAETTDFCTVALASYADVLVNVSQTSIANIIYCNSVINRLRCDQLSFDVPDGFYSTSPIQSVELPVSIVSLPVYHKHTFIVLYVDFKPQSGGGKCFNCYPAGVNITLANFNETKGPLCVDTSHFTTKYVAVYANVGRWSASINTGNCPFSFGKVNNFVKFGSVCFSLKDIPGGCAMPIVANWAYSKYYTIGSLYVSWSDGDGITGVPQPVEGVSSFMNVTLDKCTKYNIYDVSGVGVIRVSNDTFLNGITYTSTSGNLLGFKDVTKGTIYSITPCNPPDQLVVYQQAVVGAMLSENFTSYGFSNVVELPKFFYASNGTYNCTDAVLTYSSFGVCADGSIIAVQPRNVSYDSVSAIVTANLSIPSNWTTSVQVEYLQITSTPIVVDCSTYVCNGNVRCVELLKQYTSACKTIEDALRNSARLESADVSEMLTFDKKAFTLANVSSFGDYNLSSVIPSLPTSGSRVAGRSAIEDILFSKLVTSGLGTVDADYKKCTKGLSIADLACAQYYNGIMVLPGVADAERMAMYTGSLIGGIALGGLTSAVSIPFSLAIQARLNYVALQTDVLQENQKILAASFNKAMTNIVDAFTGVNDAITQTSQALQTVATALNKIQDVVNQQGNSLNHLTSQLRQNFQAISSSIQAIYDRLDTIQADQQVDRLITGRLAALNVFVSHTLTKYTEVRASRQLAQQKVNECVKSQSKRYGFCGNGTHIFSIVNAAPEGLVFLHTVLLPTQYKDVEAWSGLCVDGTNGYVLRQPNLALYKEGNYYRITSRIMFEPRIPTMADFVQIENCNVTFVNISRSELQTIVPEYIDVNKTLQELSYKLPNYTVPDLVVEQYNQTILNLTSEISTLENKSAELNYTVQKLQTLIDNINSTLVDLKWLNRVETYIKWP

T2: MERS-CoV spike antigens (bead panel) (MERS-CoV, UniProt K9N5Q8 18-1296)
T2 sequence: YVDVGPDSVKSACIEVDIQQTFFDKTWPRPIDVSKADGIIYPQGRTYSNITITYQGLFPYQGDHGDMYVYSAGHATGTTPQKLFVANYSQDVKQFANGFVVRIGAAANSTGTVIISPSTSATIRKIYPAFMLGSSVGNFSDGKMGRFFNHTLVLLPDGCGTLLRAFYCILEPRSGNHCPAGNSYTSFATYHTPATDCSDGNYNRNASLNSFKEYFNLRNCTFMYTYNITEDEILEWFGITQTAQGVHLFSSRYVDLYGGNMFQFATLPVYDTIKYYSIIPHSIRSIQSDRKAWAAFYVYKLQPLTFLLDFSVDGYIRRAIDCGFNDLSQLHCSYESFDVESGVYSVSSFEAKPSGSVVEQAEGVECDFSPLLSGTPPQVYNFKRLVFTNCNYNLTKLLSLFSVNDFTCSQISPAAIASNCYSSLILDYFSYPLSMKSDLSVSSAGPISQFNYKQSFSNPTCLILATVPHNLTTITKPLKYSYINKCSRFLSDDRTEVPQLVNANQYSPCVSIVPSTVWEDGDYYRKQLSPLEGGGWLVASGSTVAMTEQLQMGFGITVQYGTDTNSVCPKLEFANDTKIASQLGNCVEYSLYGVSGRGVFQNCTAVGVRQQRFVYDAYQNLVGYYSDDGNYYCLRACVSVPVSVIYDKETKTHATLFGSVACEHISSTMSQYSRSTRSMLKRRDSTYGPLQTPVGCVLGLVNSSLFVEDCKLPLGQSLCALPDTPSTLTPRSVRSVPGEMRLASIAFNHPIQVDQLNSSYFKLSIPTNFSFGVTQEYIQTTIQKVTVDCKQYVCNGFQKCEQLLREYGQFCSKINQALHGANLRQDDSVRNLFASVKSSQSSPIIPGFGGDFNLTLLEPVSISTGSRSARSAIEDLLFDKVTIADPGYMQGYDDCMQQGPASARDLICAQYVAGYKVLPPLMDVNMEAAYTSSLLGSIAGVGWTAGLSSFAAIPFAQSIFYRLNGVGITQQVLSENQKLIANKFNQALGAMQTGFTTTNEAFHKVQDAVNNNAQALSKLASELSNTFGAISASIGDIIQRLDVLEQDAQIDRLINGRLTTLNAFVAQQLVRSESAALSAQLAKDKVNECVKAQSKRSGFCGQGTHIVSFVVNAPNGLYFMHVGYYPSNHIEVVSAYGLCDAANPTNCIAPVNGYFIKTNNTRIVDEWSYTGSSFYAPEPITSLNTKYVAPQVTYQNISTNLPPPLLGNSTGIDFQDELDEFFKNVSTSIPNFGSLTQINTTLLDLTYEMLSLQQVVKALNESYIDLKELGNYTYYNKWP

T3: HCoV-HKU1 spike antigens (bead panel) (HCoV-HKU1, UniProt Q5MQD0 13-1300)
T3 sequence: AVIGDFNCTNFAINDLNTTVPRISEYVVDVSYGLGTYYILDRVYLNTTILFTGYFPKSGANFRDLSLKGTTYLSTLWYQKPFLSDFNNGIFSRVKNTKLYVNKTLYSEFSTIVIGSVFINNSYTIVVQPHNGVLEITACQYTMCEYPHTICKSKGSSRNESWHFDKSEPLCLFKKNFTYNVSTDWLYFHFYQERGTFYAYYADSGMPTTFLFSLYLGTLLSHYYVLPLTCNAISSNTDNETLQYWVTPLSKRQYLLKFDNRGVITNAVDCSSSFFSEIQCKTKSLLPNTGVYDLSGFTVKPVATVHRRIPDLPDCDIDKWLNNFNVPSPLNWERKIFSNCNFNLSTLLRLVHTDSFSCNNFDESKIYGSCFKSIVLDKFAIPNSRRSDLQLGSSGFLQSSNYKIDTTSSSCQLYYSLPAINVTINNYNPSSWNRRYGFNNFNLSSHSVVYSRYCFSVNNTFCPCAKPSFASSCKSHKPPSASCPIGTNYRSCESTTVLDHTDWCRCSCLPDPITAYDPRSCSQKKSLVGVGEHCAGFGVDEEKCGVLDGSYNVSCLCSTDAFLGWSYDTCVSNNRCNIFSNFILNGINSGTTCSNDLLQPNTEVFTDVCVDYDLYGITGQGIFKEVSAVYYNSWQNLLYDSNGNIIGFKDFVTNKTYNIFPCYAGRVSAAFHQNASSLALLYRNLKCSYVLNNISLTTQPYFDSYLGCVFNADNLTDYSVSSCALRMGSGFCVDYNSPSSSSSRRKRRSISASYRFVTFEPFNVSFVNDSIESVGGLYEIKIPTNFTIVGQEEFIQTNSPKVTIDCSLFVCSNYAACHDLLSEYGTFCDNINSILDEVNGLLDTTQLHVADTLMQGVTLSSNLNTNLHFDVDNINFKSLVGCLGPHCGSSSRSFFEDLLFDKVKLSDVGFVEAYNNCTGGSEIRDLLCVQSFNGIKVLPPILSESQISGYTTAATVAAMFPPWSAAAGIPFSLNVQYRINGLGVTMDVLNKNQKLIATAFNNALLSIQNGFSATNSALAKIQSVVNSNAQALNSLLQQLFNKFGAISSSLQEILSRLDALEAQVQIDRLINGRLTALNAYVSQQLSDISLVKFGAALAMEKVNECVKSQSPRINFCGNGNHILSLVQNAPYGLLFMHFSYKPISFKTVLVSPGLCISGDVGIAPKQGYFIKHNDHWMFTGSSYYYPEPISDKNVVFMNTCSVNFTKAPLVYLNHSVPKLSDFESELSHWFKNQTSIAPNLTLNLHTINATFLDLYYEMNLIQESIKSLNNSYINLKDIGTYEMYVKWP

B1: COV_1063 (antibody, V domains shown)
VH: EEKLVESGGDLVQPGGSLRISCEVSGFSLSKYWMNWVRQAPGKGLQWVANIEEDGSERNYADSVKGRFTISRDNARNSLYLQMNSLRVEDTAVYLCTAGHYAGPWGWGQGTLVTVSS
VL: DIQMTQSPSSLSASVGDRVTVTCRASQDIGHYLAWYQQKPGKTPNLLIYDAFNLESGVPPRFGGSGSGTDFTLTISSLQPEDAATYYCQKYDSVPWTFGQGTKVEIKR
notes: human IgG1
B2: COV_1032 (antibody, V domains shown)
VH: QVHLQESGPGLVKPSETLSLTCTVSGGSISSYYWSWIRQPPGKGLEWIGYIYDSGSTNYNPSLKSRVTISVDTSKNQFSLKLSSVTAADTAVYYCARSVRGVTIDYWGQGTLVTVSS
VL: DIQMTQSPSSLSASVGDRVTITCRASQSISNSISSYLNWYQKKPGKAPKLLIYAASSLQSGVPSRFSGSGSGTDFTLTISSLQPEDFATYYCQQSYSTPTTFGQGTKVEIKR
notes: human IgG1
B3: COV_1116 (antibody, V domains shown)
VH: EVQLVESGGGLVKPGGSLRLSCAASGFTFSSYSMNWVRQAPGKGLEWVSSISSSNAYIYSADSVKGRFTISRDNAKNSLYLQMNSLRADDTAVYYCARGGRGLSSSPGRLDYYYGLDVWGQGTTVTVSS
VL: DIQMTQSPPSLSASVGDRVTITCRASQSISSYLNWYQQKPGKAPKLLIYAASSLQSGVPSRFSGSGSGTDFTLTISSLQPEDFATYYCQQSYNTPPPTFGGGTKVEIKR
notes: human IgG1
B4: COV_2055 (antibody, V domains shown)
VH: EVQLVESGGGVVQPGRSLRLSCAASGFTLSSYGMHWVRQAPGKGLEWVAVISYEGSNKHYADSVKGRFTISRDNSKNTLYLQMNSLRAEDTAVYYCAKGSTNYFDHWGQGTLVTVSS
VL: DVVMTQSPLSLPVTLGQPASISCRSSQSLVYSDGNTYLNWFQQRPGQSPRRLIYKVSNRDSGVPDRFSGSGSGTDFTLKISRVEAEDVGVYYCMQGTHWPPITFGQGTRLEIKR
notes: human IgG1
B5: COV_2064 (antibody, V domains shown)
VH: EVQLVESGGGLVQPGGSLRLSCTASGFTFNNNWMHWVRQVPGKGLVWVSRINTDESSTSYADSVKGRFIISRDNAKNTLYLQMNSLRVEDTAVYYCARSTAQYDIWTGYYYYMDVWGKGTTVTVSS
VL: DIQMTQSPSTLSASVGDRVTISCRASQSISTWLAWYQQKPGKAPNLLIYGASNLGSGVPSRFSGGGSGTEFTLTISSLQSDDFATYYCQRYNSFPYTFGQGTKLEIKR
notes: human IgG1
B6: COV_1131 (antibody, V domains shown)
VH: QVQLQESGPGLVKPSETLSLTCSVSGGSISSYYWSWIRQPPGKGLEWIGYISYSGSTNYNPSLKSRVTISVDTSKNQFSLKLSSVTAADTAVYYCARLGFGGIYPSLYDAFDIWGQGTMVTVSS
VL: DIQMTQSPSSLSASVGDRVTITCRASQTISSYLNWYQQKPGKAPNLLIYDASSLQRGVPSRFSGSGSGTDFTLTISSLQPEDFATYYCQQSYSTPRTFGQGTKVEIKR
notes: human IgG1

How the values were obtained:
[1] = target: SARS-CoV-1 spike antigens (bead panel) (SARS-CoV-1, UniProt P59594 14-1195); experiment: multiplex bead assay
[2] = target: SARS-CoV-2 S on pseudovirions (Wuhan Hu-1 / IL1/2020, last 18 amino acids removed) (SARS-CoV-2, UniProt P0DTC2 14-1273); experiment: cell-based or functional assay
[3] = target: T1, HCoV-229E spike antigens (bead panel); experiment: multiplex bead assay
[4] = target: T2, MERS-CoV spike antigens (bead panel); experiment: multiplex bead assay
[5] = target: T3, HCoV-HKU1 spike antigens (bead panel); experiment: multiplex bead assay

Row | Binder | binding result [1] | Mean IC50, pSV neutralization [2] [µg/ml] | Mean IC80, pSV neutralization [2] [µg/ml] | binding result [3] | binding result [4] | binding result [5]
1 | B1 | no binding | ≥ 25 | ≥ 25 |  |  | 
2 | B2 |  | 2.5 | ≥ 25 | no binding | no binding | 
3 | B3 |  | 6.99 | ≥ 25 | no binding | no binding | no binding
4 | B4 |  |  |  | no binding | no binding | 
5 | B5 |  | ≥ 25 | ≥ 25 | no binding | no binding | no binding
6 | B6 |  | ≥ 25 | ≥ 25 | no binding | no binding | no binding
